Experimental data: US20120277143A1
Numbering of substitutions follows the chain as printed.

B1: 7H3 (designed binder, part only; not given: N-cap, C-cap, His tag, part only)
chain, part: TDMYGSTPLHLAARHGHLEIVEVLLKYGADVNAFDFIGDTPLHLAAYRGHLEIVEVLLKYGVDVNADDHYGDTPLHLAASMGHLEIVEVLLKNGADVNA
B2: 5D3 (designed binder, part only; not given: N-cap, C-cap, His tag, part only)
chain, part: B1 chain, part with T1W, M3S, H15E, F34K, F36M
B3: 5D2 (designed binder, part only; not given: N-cap, C-cap, His tag, part only)
chain, part: B1 chain, part with T1K, M3L, Y4F, Y27N, F34E

Target: cyno IL13 (cynomolgus monkey) (UniProt Q0PW92)
Assay: cell-based or functional assay

Sequence of cyno IL13 (cynomolgus monkey) (Q0PW92 entry or part of it): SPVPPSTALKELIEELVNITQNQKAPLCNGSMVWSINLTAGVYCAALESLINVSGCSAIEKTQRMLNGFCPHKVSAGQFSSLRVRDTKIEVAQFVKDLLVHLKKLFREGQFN

| Cyno IL13 STAT6 IC50 | Binder |
| --- | --- |
| 388 pM | B1 |
| 3020 pM | B2 |
| 224 pM | B3 |

Target: human IL13 (human) (UniProt P35225)
Assay: cell-based or functional assay

Sequence of human IL13 (human) (P35225 other isoform, or with tags, fused parts or gaps limits assumed): as the sequence (Q0PW92 entry or part of it) above, with S1G, K10R, V42M, N67S, R83H, V100L, Q110R counted along it

| STAT6 Phospho IC50 | TARC expression IC50 | Binder |
| --- | --- | --- |
| 25.3 pM | 69.6 pM | B1 |
| 16.9 pM | 88.3 pM | B2 |
| 20.3 pM | 71.4 pM | B3 |

Target: human IL13 (human) (UniProt P35225)
Assay: SPR BIAcore, biotin-IL13 on SA chip, global fit

| Kd | koff | kon | Binder |
| --- | --- | --- | --- |
| 131 pM | 0.00056 s⁻¹ | 4.26e+06 M⁻¹ s⁻¹ | B1 |
| 164 pM | 0.000144 s⁻¹ | 877000 M⁻¹ s⁻¹ | B2 |
| 145 pM | 0.000218 s⁻¹ | 1.51e+06 M⁻¹ s⁻¹ | B3 |

Target: human IL13 R130Q (human) (UniProt P35225)
Assay: Luminex competition, 80 pM biotin-IL13 R130Q binding to IL13Ra2-Fc beads

Sequence of human IL13 R130Q (human) (P35225 35-146 limits assumed, stated change not applied): as the sequence (Q0PW92 entry or part of it) above, with S1G, K10R, V42M, N67S, R83H, V100L counted along it

| IC50 | Binder |
| --- | --- |
| 66.9 pM | B1 |
| 37.5 pM | B2 |
| 32.2 pM | B3 |
